Data: patent US20260242839A1, “GLYCOSIDE PRODUCT BIOSYNTHESIS AND RECOVERY” (Manus Bio Inc., priority 2023, published 2026)

B1: A143W: mutation to UGT enzyme of SEQ ID NO: 14 (protein)
chain: MATKNSSGMSLAERFWLTLSRSSLVVGRSCVEFEPETVPLLSTLRGKPITFLGLMPPLHEGRREDGEDATVRWLDAQPAKSVVYVALGSEVPLGVEKVHELALGLELAGTRFLWALRKPTGVSDADLLPAGFEERTRGRGVVWTRWVPQMSILAHAAVGAFLTHCGWNSTIEGLMFGHPLIMLPITGDQGPNARLIEAKNAGLQVARNDGDGSFDREGVAAAIRAVAVEEESSKVFQAKAKKLQEIVADMACHERYIDGFIQQLRSYKDDSGYSSSYAAAAGMHVVICPWLAFGHLLPCLDLAQRLASRGHRVSFVSTPRNISRLPPVRPALAPLVAFVALPLPRVEGLPDGAESTNDVPHDRPDMVELHRRAFDGLAAPFSEFLGTACADWVIVDSFHHWAAAAALEHKVPCAMMLLGSAEMIASIADERLEHAETESPAAAGQGRPAAAPTFEVARMKLIR
B2: C252R: mutation to UGT enzyme of SEQ ID NO: 14 (protein)
chain: MATKNSSGMSLAERFWLTLSRSSLVVGRSCVEFEPETVPLLSTLRGKPITFLGLMPPLHEGRREDGEDATVRWLDAQPAKSVVYVALGSEVPLGVEKVHELALGLELAGTRFLWALRKPTGVSDADLLPAGFEERTRGRGVVATRWVPQMSILAHAAVGAFLTHCGWNSTIEGLMFGHPLIMLPITGDQGPNARLIEAKNAGLQVARNDGDGSFDREGVAAAIRAVAVEEESSKVFQAKAKKLQEIVADMARHERYIDGFIQQLRSYKDDSGYSSSYAAAAGMHVVICPWLAFGHLLPCLDLAQRLASRGHRVSFVSTPRNISRLPPVRPALAPLVAFVALPLPRVEGLPDGAESTNDVPHDRPDMVELHRRAFDGLAAPFSEFLGTACADWVIVDSFHHWAAAAALEHKVPCAMMLLGSAEMIASIADERLEHAETESPAAAGQGRPAAAPTFEVARMKLIR
B3: M250K_A251E_C252L: mutation to UGT enzyme of SEQ ID NO: 14 (protein)
chain: MATKNSSGMSLAERFWLTLSRSSLVVGRSCVEFEPETVPLLSTLRGKPITFLGLMPPLHEGRREDGEDATVRWLDAQPAKSVVYVALGSEVPLGVEKVHELALGLELAGTRFLWALRKPTGVSDADLLPAGFEERTRGRGVVATRWVPQMSILAHAAVGAFLTHCGWNSTIEGLMFGHPLIMLPITGDQGPNARLIEAKNAGLQVARNDGDGSFDREGVAAAIRAVAVEEESSKVFQAKAKKLQEIVADKELHERYIDGFIQQLRSYKDDSGYSSSYAAAAGMHVVICPWLAFGHLLPCLDLAQRLASRGHRVSFVSTPRNISRLPPVRPALAPLVAFVALPLPRVEGLPDGAESTNDVPHDRPDMVELHRRAFDGLAAPFSEFLGTACADWVIVDSFHHWAAAAALEHKVPCAMMLLGSAEMIASIADERLEHAETESPAAAGQGRPAAAPTFEVARMKLIR
B4: T453F: mutation to UGT enzyme of SEQ ID NO: 14 (protein)
chain: MATKNSSGMSLAERFWLTLSRSSLVVGRSCVEFEPETVPLLSTLRGKPITFLGLMPPLHEGRREDGEDATVRWLDAQPAKSVVYVALGSEVPLGVEKVHELALGLELAGTRFLWALRKPTGVSDADLLPAGFEERTRGRGVVATRWVPQMSILAHAAVGAFLTHCGWNSTIEGLMFGHPLIMLPITGDQGPNARLIEAKNAGLQVARNDGDGSFDREGVAAAIRAVAVEEESSKVFQAKAKKLQEIVADMACHERYIDGFIQQLRSYKDDSGYSSSYAAAAGMHVVICPWLAFGHLLPCLDLAQRLASRGHRVSFVSTPRNISRLPPVRPALAPLVAFVALPLPRVEGLPDGAESTNDVPHDRPDMVELHRRAFDGLAAPFSEFLGTACADWVIVDSFHHWAAAAALEHKVPCAMMLLGSAEMIASIADERLEHAETESPAAAGQGRPAAAPFFEVARMKLIR
B5: V38F: mutation to UGT enzyme of SEQ ID NO: 14 (protein)
chain: MATKNSSGMSLAERFWLTLSRSSLVVGRSCVEFEPETFPLLSTLRGKPITFLGLMPPLHEGRREDGEDATVRWLDAQPAKSVVYVALGSEVPLGVEKVHELALGLELAGTRFLWALRKPTGVSDADLLPAGFEERTRGRGVVATRWVPQMSILAHAAVGAFLTHCGWNSTIEGLMFGHPLIMLPITGDQGPNARLIEAKNAGLQVARNDGDGSFDREGVAAAIRAVAVEEESSKVFQAKAKKLQEIVADMACHERYIDGFIQQLRSYKDDSGYSSSYAAAAGMHVVICPWLAFGHLLPCLDLAQRLASRGHRVSFVSTPRNISRLPPVRPALAPLVAFVALPLPRVEGLPDGAESTNDVPHDRPDMVELHRRAFDGLAAPFSEFLGTACADWVIVDSFHHWAAAAALEHKVPCAMMLLGSAEMIASIADERLEHAETESPAAAGQGRPAAAPTFEVARMKLIR
B6: Q244K: mutation to UGT enzyme of SEQ ID NO: 14 (protein)
chain: MATKNSSGMSLAERFWLTLSRSSLVVGRSCVEFEPETVPLLSTLRGKPITFLGLMPPLHEGRREDGEDATVRWLDAQPAKSVVYVALGSEVPLGVEKVHELALGLELAGTRFLWALRKPTGVSDADLLPAGFEERTRGRGVVATRWVPQMSILAHAAVGAFLTHCGWNSTIEGLMFGHPLIMLPITGDQGPNARLIEAKNAGLQVARNDGDGSFDREGVAAAIRAVAVEEESSKVFQAKAKKLKEIVADMACHERYIDGFIQQLRSYKDDSGYSSSYAAAAGMHVVICPWLAFGHLLPCLDLAQRLASRGHRVSFVSTPRNISRLPPVRPALAPLVAFVALPLPRVEGLPDGAESTNDVPHDRPDMVELHRRAFDGLAAPFSEFLGTACADWVIVDSFHHWAAAAALEHKVPCAMMLLGSAEMIASIADERLEHAETESPAAAGQGRPAAAPTFEVARMKLIR
B7: I427F: mutation to UGT enzyme of SEQ ID NO: 14 (protein)
chain: MATKNSSGMSLAERFWLTLSRSSLVVGRSCVEFEPETVPLLSTLRGKPITFLGLMPPLHEGRREDGEDATVRWLDAQPAKSVVYVALGSEVPLGVEKVHELALGLELAGTRFLWALRKPTGVSDADLLPAGFEERTRGRGVVATRWVPQMSILAHAAVGAFLTHCGWNSTIEGLMFGHPLIMLPITGDQGPNARLIEAKNAGLQVARNDGDGSFDREGVAAAIRAVAVEEESSKVFQAKAKKLQEIVADMACHERYIDGFIQQLRSYKDDSGYSSSYAAAAGMHVVICPWLAFGHLLPCLDLAQRLASRGHRVSFVSTPRNISRLPPVRPALAPLVAFVALPLPRVEGLPDGAESTNDVPHDRPDMVELHRRAFDGLAAPFSEFLGTACADWVIVDSFHHWAAAAALEHKVPCAMMLLGSAEMIASFADERLEHAETESPAAAGQGRPAAAPTFEVARMKLIR
B8: R45F: mutation to UGT enzyme of SEQ ID NO: 14 (protein)
chain: MATKNSSGMSLAERFWLTLSRSSLVVGRSCVEFEPETVPLLSTLFGKPITFLGLMPPLHEGRREDGEDATVRWLDAQPAKSVVYVALGSEVPLGVEKVHELALGLELAGTRFLWALRKPTGVSDADLLPAGFEERTRGRGVVATRWVPQMSILAHAAVGAFLTHCGWNSTIEGLMFGHPLIMLPITGDQGPNARLIEAKNAGLQVARNDGDGSFDREGVAAAIRAVAVEEESSKVFQAKAKKLQEIVADMACHERYIDGFIQQLRSYKDDSGYSSSYAAAAGMHVVICPWLAFGHLLPCLDLAQRLASRGHRVSFVSTPRNISRLPPVRPALAPLVAFVALPLPRVEGLPDGAESTNDVPHDRPDMVELHRRAFDGLAAPFSEFLGTACADWVIVDSFHHWAAAAALEHKVPCAMMLLGSAEMIASIADERLEHAETESPAAAGQGRPAAAPTFEVARMKLIR
B9: T186I: mutation to UGT enzyme of SEQ ID NO: 14 (protein)
chain: MATKNSSGMSLAERFWLTLSRSSLVVGRSCVEFEPETVPLLSTLRGKPITFLGLMPPLHEGRREDGEDATVRWLDAQPAKSVVYVALGSEVPLGVEKVHELALGLELAGTRFLWALRKPTGVSDADLLPAGFEERTRGRGVVATRWVPQMSILAHAAVGAFLTHCGWNSTIEGLMFGHPLIMLPIIGDQGPNARLIEAKNAGLQVARNDGDGSFDREGVAAAIRAVAVEEESSKVFQAKAKKLQEIVADMACHERYIDGFIQQLRSYKDDSGYSSSYAAAAGMHVVICPWLAFGHLLPCLDLAQRLASRGHRVSFVSTPRNISRLPPVRPALAPLVAFVALPLPRVEGLPDGAESTNDVPHDRPDMVELHRRAFDGLAAPFSEFLGTACADWVIVDSFHHWAAAAALEHKVPCAMMLLGSAEMIASIADERLEHAETESPAAAGQGRPAAAPTFEVARMKLIR
B10: T37S: mutation to UGT enzyme of SEQ ID NO: 14 (protein)
chain: MATKNSSGMSLAERFWLTLSRSSLVVGRSCVEFEPESVPLLSTLRGKPITFLGLMPPLHEGRREDGEDATVRWLDAQPAKSVVYVALGSEVPLGVEKVHELALGLELAGTRFLWALRKPTGVSDADLLPAGFEERTRGRGVVATRWVPQMSILAHAAVGAFLTHCGWNSTIEGLMFGHPLIMLPITGDQGPNARLIEAKNAGLQVARNDGDGSFDREGVAAAIRAVAVEEESSKVFQAKAKKLQEIVADMACHERYIDGFIQQLRSYKDDSGYSSSYAAAAGMHVVICPWLAFGHLLPCLDLAQRLASRGHRVSFVSTPRNISRLPPVRPALAPLVAFVALPLPRVEGLPDGAESTNDVPHDRPDMVELHRRAFDGLAAPFSEFLGTACADWVIVDSFHHWAAAAALEHKVPCAMMLLGSAEMIASIADERLEHAETESPAAAGQGRPAAAPTFEVARMKLIR

Each molecule was assayed on steviol glycoside (assay: steviol glycoside bioconversion by E. coli expressing individual mutations of UGT SEQ ID NO: 14). Settings: fold improvement of % conversion vs parent UGT SEQ ID NO: 14; stevia leaf extract and glucose fed; 37° C., 48 hr.
Type: cell-based
Procedure: Fold improvement is with respect to % steviol glycoside conversion of the parent UGT enzyme of SEQ ID NO: 14. The UGT enzyme of SEQ ID NO: 15 has the following mutations from SEQ ID NO: 14: ins_A2_T3_RR, H59P, A238E, L417F. Stevia leaf extract and glucose were fed to the bioconversion strains. Bioconversion took place at 37° C. for 48 hr. Data were quantified by reverse phase LC DAD to quantify conversion of steviol glycosides.
Fold improvement (FI) is with respect to % steviol glycoside conversion.

Going from B1 to B2, the “FI %Stevioside→rebE” value falls from 1.3 to 1.25.

First: B3
Second: B4
The “FI %Stevioside→rebE” value of the first is higher: 1.40 for the first, 1.32 for the second.

First: B5
Second: B6
The “FI %Stevioside→rebE” value of the first is higher: 1.33 for the first, 1.25 for the second.

Compared with B7, B8 is higher in “FI %Stevioside→rebE” value: 1.15 for the first, 1.35 for the second.

Going from B9 to B10, the “FI %Stevioside→rebE” value falls from 1.48 to 1.35.

First: B1
Second: B2
The “FI %rebA→rebD” value of the first is higher: 1.3 for the first, 1.19 for the second.

Compared with B3, B4 is lower in “FI %rebA→rebD” value: 1.23 for the first, 1.20 for the second.

Going from B5 to B6, the “FI %rebA→rebD” value falls from 1.19 to 1.16.

First: B7
Second: B8
The “FI %rebA→rebD” value of the first is higher: 1.24 for the first, 1.18 for the second.

Compared with B9, B10 is lower in “FI %rebA→rebD” value: 1.24 for the first, 1.17 for the second.
